Source: article PMC2952653 (Journal of molecular biology, 2010)

Key:
[1] = target: the molecule itself; assay: multiangle light scattering
[2] = target: MEF2A (2-95), MADS-box/MEF2 domain (Homo sapiens, UniProt Q02078 2-95); assay: X-ray crystallography

B1: MADS-box/MEF2 domain of human MEF2A (residues 2-95) (domain or fragment, UniProt Q02078 2-95, looked up)
chain: GRKKIQITRIMDERNRQVTFTKRKFGLMKKAYELSVLCDCEIALIIFNSSNKLFQYASTDMDKVLLKYTEYNEPHESRTNSDIVEALNKKEHRG
Question: For B1, which “stoichiometry N” value [1] is on record?
Answer: 2

B2: MEF2 site 14mer (crystal) (dsDNA)
DNA 1: AACTATTTATAAGA
DNA 2: TTCTTATAAATAGT
Question: Does B2 bind [2]?
Answer: binds
